{
  "source": "the DeepSol protein solubility set",
  "data": [
    {"experiment": "soluble on expression in E. coli; label from the status in PepcDB or PDB records", "values": [
      {"sequence": "MSGGLLIESVIPGSIASELEIEPGDRLVAVNNRPLRDIVDYNFHADGEELLLEIVKPSGEVWEVEVERDDDEALGLVFAAPEPARCGNRCVFCFVHQLPKGLRRPLYVKDEDYRLSFLYGNYVTLSNIGEEDLQRIIEQRLSPLYISVHATDPALRERLLGRKGIIPILDIMTRLAEARITMHTQAVLCPGWNDGDALRRTVADLASLYPRVASLAIVPVGLTRHRDRLPLLEPVSADYARDFIYEWLPEAQRLADAFGEPFLFLADEFFIKADAPFPPLDFYGDFPQIENGVGMIPLFMDEADRVLRRARRMKPRTLTVVTGHSPYRYLADFLARLSARTGITFQPVAIPNRLFGESVTVTGLVAGRDILSELAGRNLGDGVLIPDVMLKEGEGVFLDDLTIGALEQGLGVPVVVVPSSPAGVMEGIRALRPLEHHHHHH", "soluble on expression in E. coli": "not soluble"},
      {"sequence": "MKRKVSVYDSSKDKTLGQVVKGESPIWIRVAMAILRVWFFIYDCLNYLPYQLFNSPTEKLRKSERVKANWVDDRDGPIRNIQGHASETFPGKDTVDKVWRKCVELYDESPCLGTRQLIEVHEDKQPGGRVFEKWHLGEYVWQSYKEVETQVARLAAGIKDLAHEEQNPKVVIFAETRADWLITALACFRANVTIVTVYATLGEDAIAHAIGETEATILVTSSELLPKIVTLGKKCPTLKTLIYFAPVDQKAPAPELAPFRDQFKHVLSLSGLLTRNQEQVKESTAVKSDIALIMYTSGTTGQPKGVILLHQNVVAALLGQGDGVGIICNADTYIGYLPLAHILELDAELTCLTKGAKVGYSSPLTLHDRASKIQKGTHGDCHALRPTLMAAVPAIMDRIFKAVSEEVAASPRFMQELFKLNYERKRSRYLEGYCSPFLDRIVFKKIRRLLGGKLRGVLSGGAPLNAETQRFMNICMCCPVVQGYGLTETCGAACVADINDLSTGTVGPPVRCSDIALREWSEGGYSPFNDPPQGEILISGENISPGYYKQPEKTAEDFITYKGKVYFATGDIGQKRDDGSLLIIDRKKDLVKLQHGEYVSLAKVECALLNCPIVDNICVYGSGMEDSVVALVVPNQKHLEKIAEAEGVSTSEMKTMCEDKKVIAAYKKQLEEHAKKSKLSRSEIPAAIHLCPEIWTPDTGLLTEALKLKRKPIQMAYQKTLDDLYKQLKKN", "soluble on expression in E. coli": "not soluble"},
      {"sequence": "MSLKSELPPVQVALDLVDLPRAIEIAKEAVAGGVTWVEAGTPLIKSEGMNAIRELRKNFPTLTIVADMKTMDAGSTEVEMAAKAGANVILILGVGPDSMIIDAVKAGKKYGVLVGTDLIATEDPIKRAVELEEMGVDIINIHVGLDQQVLNVDPVELVKRVSENCKKAKIAAAGGLNSETAVKAYEAGADIIIAGGTLYKSADPEQTARDIIKGLKTGKPVKTDKFKKFNESELVSAFNVVSTSNISDAMHRTGEMKGLKPVWNSEKPLKFAGPAVTVRTYSGDWSKPVSAIDDCEAGNVLVIDNCSSEIACWGGLATLSCETKGVVAIVIDGAVRDVEEILKIGIPVFARSITPTAGEPKGFGEINAVIDCAGRTVEPGDWIVGDENGIIVVPKNEAMEIANRAIDVKEREDRVKEEITRGTTLAKTIRLKDWELKEGHHHHHH", "soluble on expression in E. coli": "soluble"},
      {"sequence": "MPRVGIITSDFKFYHDVIKQLRLWKIPFVSLDLKGNIPDDVVVILSSIRDDIDLPDQVKAQDGLDGIRRAIPRLLNKTMFKDLTIGIDPGPKPGIAVFGDDVLLEAFECPTVFSVRKFVDSISMSYSYENITIKIGNGDRPNRDIIMNRLSDVDISIEVVNEKNTSTPHKIHDNALSAARIAQINGLYPIKRIPVKFSRKNVYEKEFVTLKNVIENAAGTEGRSSNST", "soluble on expression in E. coli": "not soluble"},
      {"sequence": "MGEVLHIEDALNEKGVYVSTTSGVSMYPMLRNRRDTIIVKPPTAPLKKYDVPLYRRGDDYVLHRIIGKDDRGYIICGDNCINKEYGITENQIIGVLVGFYRDGNEVNMEGVGYKLYSRAWVFLHPLICAFKKIKMKAGKVKRLWHSK", "soluble on expression in E. coli": "not soluble"},
      {"sequence": "GMQTINATEIRNNFSYYIDTVVRDKPIAVKRNRDVLLFFSEQIIKDLLQDLKIHAELSKEDGIIIGTIDGFDLVVSGESEQEVIQKLAEDLLEYAQDYMNDFKLFYNAPNRKTHYPYILKVLLSSNIDEVKGYIYAEMV", "soluble on expression in E. coli": "soluble"},
      {"sequence": "MGSSHHHHHHSSGRENLYFQGHMNPNFLDFEQPIADLQAKIEELRLVGNDNALNISDEISRLQDKSKALTENIFGNLSSWQIAQLARHPKRPYTLDYIGYLFSDFEELHGDRHFADDPAIVGGVARLDGSPVMVIGHQKGREVREKVRRNFGMPRPEGYRKACRLMEMAERFKMPILTFIDTPGAYPGIDAEERGQSEAIAWNLRVMARLKTPIIATVIGEGGSGGALAIGVCDQLNMLQYSTYSVISPEGCASILWKTAEKAPEAAEAMGITAERLKGLGIVDKVIDEPLGGAHRDPASMAESIRGELLAQLKMLQGLEMGELLERRYDRLMSYGAP", "soluble on expression in E. coli": "soluble"},
      {"sequence": "MSLARELRKGKSNAIGMLFGDPSSGFQSRLHHAALQACNDAGYFLTAGLFREEEDNWDEQLTQFLNRTSIEKMILVPPLCGSTALHDRLIEQGASFVLVSPSRAVAVAHAVCMDDRRAAREITEHLLGLGHRRIAHITGPSDHAATRLRREGFEDAMRAVGDGALRPDWIRPGLFRFKPALECARQILTGPDRPTAIFAANDEMAAAVCFAANSLGLRVPDDLSVVGFDDVAIATTMWPPLTTVAQPYAQMARESVRLLTEVGPPGDAGQAAEKVTIDHALKVRQSTAAEGHHHHHH", "soluble on expression in E. coli": "soluble"},
      {"sequence": "MGHHHHHHSHVLPIYAYGHAVGKSVTGGYVYRGCESPNLNGLYIFGDFMSGRLMALQEDRKNKKWKKQDLCLGSTTSCAFPGLISTHSKFIISFAEDEAGELYFLATSYPSAYAPRGSIYKFVDPSRRAPPGKCKYKPVPVRTKSKRIPFRPLAKTVLDLLKEQSEKAARKSSSATLASGPAQGLSEKGSSKKLASPTSSKNTLRGPGTKKKARVGPHVRQGKRRKSLKSHSGRMRPSAEQKRAGRSLP", "soluble on expression in E. coli": "not soluble"},
      {"sequence": "MPNSKKSKKGGDQQHVTIVPVEPVKGENVDTVAYSSRSRISGESGHLIADVQSPHAKKHRIIFDRDHNVFEFRLLDGSAKHIIVYRLDELLSTTCYPFKIKNGVPIIPTKPTTSDKTLYFNFVYKKDKQKWRLKQIPVIFYTTSERDYWHSLIDTTLRRVKNRPKNIIIFINPFGGNGKAQKIFKDNVDAFFWLTPGLRYKVVLTERANHARDYIVEMPPEQWSAIDGLVSVGGDGLFNELLSGALLRTQTDAGRNIDNPSSHLVTPHIRFGIIGAGSANSIVSTVHETNDHATSAVHIAIGSECNVDVCTVHQHQKLIRISANAISYGWLGDVLRDSEEYRCLGPIRYQWSALRTTIRHPIYRGMVQFSLSHKENVNPKDQLPPCLEPCPVCMKPQGNDKYDYHWHAEFTHVICCVIPTVTPFTPYGLAPFTGIGDGTLDLALVPRISRFHNMQFMRKVAMYGGKQLYELDPSLNCYRVTKWSYQPDADQEDPGVWNLDGEILEQPKDEPLHFKLHPQLISFFGRDAAMVKPTKRSFIKKRKSSIVYQ", "soluble on expression in E. coli": "not soluble"},
      {"sequence": "MSLRDGKHIRTKLTPQKDRGESSYRIGLYIRDSAAGIGTMTFVHPDSMKYGALGHVISDNDTKKPIQVEDGQIMRSTVTSIERGSHGNPGEKLARFSPDREVIGNITINSPFGIFGKLNTNMTNGVMDKAMPIALSHQVKEGPAKILTVIDQDKVEAFDIEVVSTVPQKFPATKGMVIKVTDKRLLAKTGGIVQGMSGSPIVQNGKVIGAVTHVFVNDPTSGYGVHIEWMLHEAGINIYDQERKASEGHHHHHH", "soluble on expression in E. coli": "soluble"},
      {"sequence": "MSLSKIKEIRTKVYQWNGKTVPPQNNFCTNASDLLFEKSDAMGSFRFHEWLICEIETDDGVIGIGNAALAPQIAKKTIDTYLKPLVIGEDPFDYAYIWEKMYRRTHAWGRRGIGMVAISAIDIAIWDIMGKITNKPVFKLLGGRTKEKIPVYASKLYSQPIKALQKEAESYVKQGFKMFKMRFGWGPKDGPDGMKKNIALAEAVREVIGEDTDLMMECYMGWNLDYAKRMIPKLMKFNPRWLEEPVIADDIHGYEELNKMNMIPISGGEHEFNIFGFKQLLDLKAVSYIQYDNNRVGGFTAAQKINAIAEAHQVPVIPHAGQMHNYHLTMSNFNCPISEFFPVHDVEIGNELFYYIFEGDPAPKDGFIDLDDNKPGLGLTITDKYKSDFKIIEEGHHHHHH", "soluble on expression in E. coli": "soluble"},
      {"sequence": "MATAPYGVRLLVGAATVAVEETMKLPRTILMYPMTLASQAAHVVMRFQQGLAELVIKGDNTLETLFPPKDEKPEWATFDEDLPDALEGTSIPLLGLSDASEAKNDDRRSDGRFALYSVSDTPETTTASRSADRSTNPKTAKHPKSAAKPTVPTPAVAAELDYPALTLAQLRARLHTLDVPELEALLAYEQATKARAPFQTLLANRITRATAK", "soluble on expression in E. coli": "not soluble"},
      {"sequence": "MVLGKPQTDPTLEWFLSHCHIHKYPSKSTLIHQGEKAETLYYIVKGSVAVLIKDEEGKEMILSYLNQGDFIGELGLFEEGQERSAWVRAKTACEVAEISYKKFRQLIQVNPDILMRLSAQMARRLQVTSEKVGNLAFLLVTGRIAQTLLNLAKQPDAMTHPDGMQIKITRQEIGQIVGCSRETVGRILKMLEDQNLISAHGKTIVVYGTR", "soluble on expression in E. coli": "soluble"},
      {"sequence": "GSMTHYDVVVLGAGPGGYVAAIRAAQLGLSTAIVEPKYWGGVCLNVGCIPSKALLRNAELVHIFTKDAKAFGISGEVTFDYGIAYDRSRKVAEGRVAGVHFLMKKNKITEIHGYGTFADANTLLVDLNDGGTESVTFDNAIIATGSSTRLVPGTSLSANVVTYEEQILSRELPKSIIIAGAGAIGMEFGYVLKNYGVDVTIVEFLPRALPNEDADVSKEIEKQFKKLGVTILTATKVESIADGGSQVTVTVTKDGVAQELKAEKVLQAIGFAPNVEGYGLDKAGVALTDRKAIGVDDYMRTNVGHIYAIGDVNGLLQLAHVAEAQGVVAAETIAGAETLTLGDHRMLPRATFCQPNVASFGLTEQQARNEGYDVVVAKFPFTANAKAHGVGDPSGFVKLVADAKHGELLGGHLVGHDVAELLPELTLAQRWDLTASELARNVHTHPTMSEALQECFHGLVGHMINF", "soluble on expression in E. coli": "soluble"},
      {"sequence": "MIRWFRNFGALFKKPRGAGLMKNEQTHNLQRVVQNDITCPEEQRSTGGKGGGGGSHGGHGGSHGGSHGGHGSHGGSYGGHSGHGRSFSTSSGSSGYRGLSSGSTNTSYSKSTPRTNSGYSTGKTTKTASSSRNYSNTSSTRSTTKPSKSSYSKRSTKSTKSLNYSSSSLGSKSIEKSRRSSRKSGSRQDSVASRRQLRSVSSKPQKKYVATDMPSTVSTGRSRGRSVYRRNNVNADVSQRQSRSMSVSRGRSRNRSQNRERSPSIEKSTRSQHVSRKDAFNSHDVLSPTNRSGSVHRSHSAHHERTFEERHKTPNGVWNEMFPKGTLVMYTDGSYLKRPPTSGIGIFVGPGHELNRSQRIRGPIQDNNYAEFIAVRTALQNALKNENYRDQKVVIRTDCLNVIEALQGTRPTAFVDVKSQVEFLSKQFPKGVHFQHVYAHAGDPGNEMADLFAGQASSKSQNSFGGGQRTRSASTARGRSRERNRLRSKSNDPSFIRSRSHSIHSRK", "soluble on expression in E. coli": "not soluble"},
      {"sequence": "MGSDKIHHHHHHMAITIQNHELQVTLKALGATMTSITDSQGVEYLWQGDATYWGGQAPILFPICGSVRNDCVIYRPAQAPHFTGIIPRHGFVRHKTFDYDYISDSSVRFTIKSSKEMLINYPYRFSLEITYTLRNKSIAITYIVKNLESEKNMPYAIGAHPGFNCPLFEKEVFSDYYLEFEQFETCTIPESFPDTGLLDLQARHPFLENQKQLSLNHALFEKDAITLDQLRSKTVYLKSRNHAKGIQLDFDDFENLILWTSNNGGPFLALEPWSSLSTSIEESDILEDKQNIVRLNPKQSKQHSIRITIL", "soluble on expression in E. coli": "not soluble"},
      {"sequence": "MRITHLGHSCILVEAAGQRILVDPGNLSRSWRGLTDLDAILVTHRHPDHVDPEHIGALVDANSGAVVRAEEGACHEIPALDADPVAPGDVLQIGEVRIEAVGGRHAVIHRDLEPIGNVGYLIGEGLGTILYHPGDELDETPRGVDVLACPAHAPWAAMKETVDFARSVGARHGFLIHEGLLNGRGWQLSFDRHQEMVPTTFHDLRNGQPWEVPQDLEHHHHHH", "soluble on expression in E. coli": "not soluble"},
      {"sequence": "MQSISNCPIGLVSKNTINSASTIAEWVACPWKYINVVGSGRYVSNKPDKITRYDLLKAAQEAEMQELLTRNDMKGRHKRNKKSKIALETIAEENSSTESLF", "soluble on expression in E. coli": "not soluble"}
    ]}
  ]
}
